Values quoted from earlier work, collected in article PMC10339233.

Target: thrombomodulin EGF-like domains 4-6 (Homo sapiens) (UniProt P07204)
Assay: SPR

Substance: thrombin (from UniProt P00734)
- Kd: 4 nM
